Data reported in publication PMC10581170.

Target: T1, CzcR (His6-CzcR) (Pseudomonas aeruginosa PAO1?) (UniProt Q9RLJ1)
T1 sequence: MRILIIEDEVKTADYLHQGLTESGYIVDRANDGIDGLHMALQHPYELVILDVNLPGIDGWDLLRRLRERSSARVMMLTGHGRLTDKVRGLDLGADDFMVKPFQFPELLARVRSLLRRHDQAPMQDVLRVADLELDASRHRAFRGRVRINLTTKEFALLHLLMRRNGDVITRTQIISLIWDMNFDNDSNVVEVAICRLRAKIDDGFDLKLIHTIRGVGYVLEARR
Assay: EMSA

Sequence | binding
GATAACCGGCCATCGAGCTAAAACGTTTCAGGTGTTTTCACGCGAGGCTTTCGGACGTTTACAAACACCTATGAATGTAAGTATTTTGCCTGCCTTCTTCGAGCCGGTGCAGCGCCTTCACGCTGCATCGGCCGCTTTCGCTCATGAGGACAACGCTATGCAACGAAC (double strand) [mexAB-oprM promoter probe (PmexA)] | binds
GCAACCGTTCGGAACATTCTTCCCGTCGGGGGTAGGCGAGCGACTTGCCCTGTGGAATAATACTGTCTACTTATACAGTTGTTCGTGGCCGTCCGGCCGCCCTGACTTCGCGAGGACTTCAATGGA (double strand) [recA promoter fragment (PrecA)] | no binding
GAATCCACCTGAAACCCACGCCCAGCAAGGCCTATAGCACTAATCACAGACGCCCTTGACCTCAACTTAACTTGAGGTTTTATAGTCCCCGCTGCGGTCATACCGCCCCGTTTCCCCAGGACCACGAACCGCCCCCACGGCCGCTTCGCGGCGCCGGATGGCGACCAGCACAAGGAACGACCCATGCAGCGCTTC (double strand) [mexGHI-opmD promoter probe (PmexG)] | binds
